The values below come from patent US7537762B2, “Human monoclonal antibodies to activin receptor-like kinase-1” (Amgen Fremont, Inc., priority 2005, dated 2009).

The target of test [1] is T1, recombinant human ALK-1/Fc fusion protein (hALK-1/Fc) (Homo sapiens, UniProt P37023).
T1 construct: purchased R&D Systems, Inc. 370-AL; host or cells: mouse myeloma cell line
In words: Avidity by surface plasmon resonance (BIACORE), immobilized hALK-1/Fc. The class given is binding. To be noted: SPR, dissociation monitored 10 minutes. Background: In SPR one partner is held on a chip, and binding of the other changes the refractive index at the surface.
Experimental: Avidity measures of purified anti-ALK-1 antibodies by surface plasmon resonance using the BIACORE® 3000 instrument were performed as follows using the manufacturer's protocols.
To perform kinetic analyses, recombinant human ALK-1/Fc fusion protein (hALK-1/Fc) and cynomologus ALK-1/Fc fusion protein (cALK-1/Fc) were immobilized on separate flow cells of a CM5 BIAcore sensor chip using routine amine coupling. […] Deactivation of unreacted N-hydroxysuccinimide esters was performed using 1 M ethanolamine hydrochloride, pH 8.5. Antibody samples in running buffer were prepared at concentrations ranging from 0.125 to 2 nM (a 0 nM solution comprising running buffer alone was included as a zero reference). Samples were randomized and injected in duplicate for 10 minutes each across all 4 flow cells using HBS-EP (10 mM HEPES pH 7.4, 150 mM NaCl, 3 mM EDTA, 0.005% Surfactant P20) as running buffer. […] A flow rate of 25 μL/min was used to determine avidity values. The dissociation of the antibody was monitored for 10 minutes, the surface regenerated by a 12 second injection of 100 mM H3PO4 (25 μL/min). The raw data were processed using the Scrubber (©BioLogic Software) software package and analyzed using the CLAMP (©BioLogic Software) software package. […]

For another test, the target named is T2, monomeric ALK-ECD (Homo sapiens, UniProt P37023).
T2 construct: made in house; host or cells: 293T cells, transient, secreted (pSecTag2/Hygro)
Nature of the test: Affinity constants of representative mAbs by SPR (BIACORE), Example 8. Conditions: mAb immobilized (200-400 RU), monomeric ALK-ECD 3.125-400 nM, different ECD preparation than Example 7. The class given is binding.

Test [2] has as its system human vessels (human CD-31). Nature of the test: Collagen model in human foreskin-SCID chimera mice, human CD-31 staining. Type of test: in vivo, human foreskin-SCID chimera mouse. To be noted: 3.0 mg/ml Collagen, no HMVEC, 100 μg/ml id. injection.
Text: Upon arrival from National Disease Research Institute and Cooperative Human Tissue Network, human foreskin pieces were trimmed of unhealthy regions and transferred to RPMI media (CELLGRO®/Mediatech, Cat# MT-15-040-CV supplemented with Penicillin and Streptamycin (GIBCO®/Life Tech, Cat# 15070-063) (add 5 mLs of the pen/strep stock solution into 500 mLs of RPMI). Using a scalpel and cutting in sterile petri dish, the skins were trimmed to an oval shape of approximately 8×13 mm cleaning any ragged ends and connective tissues, and stored on wet ice prior to surgery. The appropriate volume (4 μL/gram of animal) of 100 mg/mL (KeTASET®(ketamine), Fort Dodge Animal Health)/1 mg/mL medetomidine (Pfizer Animal Health-DORMITOR®(medetomidine)) solution was intraperitoneally injected into scid mouse abdomen (i.e., at a 45° angle, under skin but not too deep internally). Once anesthetized, the mice were applied with eye lubricant, a subcutaneuosly injection of Ketoprofen (10 mg/kg, Fort Dodge Animal Health) and hair was shaved over the site of the surgery. […] Complete healing occurred between 21-28 days after which time skins were ready to be inoculated with tumor cells.
Test [3] deals with T3, Recombinant human ALK-1/FC chimera (Homo sapiens, UniProt P37023).
T3 construct: purchased R&D Systems, Inc. 370-AL; host or cells: mouse myeloma cell line
In words: BIACORE cross-competition / epitope binning. The class given is binding. Conditions: panel of 14 antibodies, 50 nM, primary/secondary injections. The method, then: Cross-competition experiments were performed using the BIACORE® 3000 instrument (Biacore International AB, Uppsala, Sweden and Piscataway, N.J.), following the manufacturer's protocols.
Recombinant human ALK-1/FC chimera was immobilized onto the dextran layer of a CM5 biosensor chip using amine coupling. Chips were prepared using 10 mM acetate buffer pH 5.0 as the immobilization buffer and a protein density of 940 RU was achieved. Deactivation of unreacted N-hydroxysuccinimide esters was performed using 1 M ethanolamine hydrochloride, pH 8.5.
Purified mAbs were diluted to a concentration of 50 nM in HBS-EP running buffer (0.01 M HEPES pH 7.4, 0.15 M NaCl, 3 mM EDTA, 0.005% Polysorbate 20). A primary antibody was chosen and then injected across the flow cell for 600 seconds at a rate of 10 μL/min. After the injection was complete, a secondary antibody was chosen and injected across the same flow cell for 600 seconds at a rate of 10 μL/min. The sensor surface was regenerated by a 12 second injection of 100 mM H3PO4 (25 μL/min).
After regeneration, the primary antibody was again injected across the flow cell for 600 seconds at a rate of 10 μL/min. […] Threshold values were determined by using the same antibody as both the primary antibody and secondary antibody. […]

Experimental for monomeric ALK-ECD: Affinity measures (KD and koff) of purified anti-ALK-1 antibodies by surface plasmon resonance using the BIACORE® 3000 instrument were performed as follows using the manufacturer's protocols.
To perform kinetic analyses, affinity-purified mAbs were immobilized onto the dextran layer of a CM5 biosensor chip using amine coupling. Surfaces were prepared using 10 mM acetate buffer pH 5.0 as the immobilization buffer and protein densities of 200-400 RU were achieved. Deactivation of unreacted N-hydroxysuccinimide esters was performed using 1 M ethanolamine hydrochloride, pH 8.5. Samples of monomeric ALK-ECD in running buffer were prepared at concentrations ranging from 3.125-400 nM (a 0 nM solution comprising running buffer alone was included as a zero reference). Samples were randomized and injected in duplicate for 2 minutes each across all 4 flow cells using HBS-EP (10 mM HEPES pH 7.4, 150 mM NaCl, 3 mM EDTA, 0.005% Surfactant P20) as running buffer. […] Dissociation of monomeric ALK-ECD was monitored for 10 minutes, the surface regenerated by a 12 second injection of 100 mM H3PO4 (25 μL/min). The raw data were processed using the Scrubber (©BioLogic Software) software package and analyzed using the CLAMP (©BioLogic Software) software package. The data were fit globally to a simple 1:1 Langmuir binding model.

B1: 1.162.1: human anti-ALK-1 monoclonal antibody; VH SEQ ID NO: 26, VL SEQ ID NO: 28 (antibody, V domains shown)
VH: QVQLQESGPGLVKPSQTLSLICTVSGGSISSGEYYWSWIRQHPGKGLEWIGYIYYSGSTYYNPSLKSRLTISVDTSKNQFSLKLSSVTAADTAVYYCAREGIGAFDIWGQGTMVTVSS
VL: EIVLTQSPGTLSLSPGERATLSCRASQSVSSSYLAWYQQKPGQAPRLLIYGASSRATGIPDRFSGSGSGTDFTLTIIRLDPEDFAVYYCQRYGSSPITFGQGTRLEIK
modifications: Human
Take B1: the hALK-1/Fc koff in test [1] was 1.1e-05 s⁻¹.

B2: 4.72.1: human anti-ALK-1 monoclonal antibody; VH SEQ ID NO: 66, VL SEQ ID NO: 68 (antibody, V domains shown)
VH: QVQLQESGPGLVKPSQTLSLTCTVSGGSISSGEYYWSWIRQHPGKGLEWIGYIFYSGSTYYNPSLKSRVTISLDTSKNQFSLKLSSVTAADTAVYYCARESTDGMDVWGQGTTVTVSS
VL: EIVLTQSPGTLSLSPGERATLSCRASQSVSSSYLAWYQRKPGQAPRLLIYGVSSRATGIPDRFSGSGSGTDFTLTISRLEPEDFAVYYCQQYGSSMITFGQGTRLEIK
modifications: Human
On to B2, for which, in the test with monomeric ALK-ECD, the off-rate was determined as 2.5e-05 s⁻¹ and the on-rate worked out at 32000 M⁻¹ s⁻¹.

B3: 1.14.1: human anti-ALK-1 monoclonal antibody; VH SEQ ID NO: 18, VL SEQ ID NO: 20 (antibody, V domains shown)
VH: QVQLQESGPGLVKPSETLSLTCTVSGGSVSSGDYYWNWIRQPPGKGLEWIGYIYYSGSTNYNPSLKSRVTISVDTSKNQFSLKLSSVTAADTAVYYCAREAVSAFDYWGQGTLVTVSS
VL: EIVLTQSPGTLSLSPGERATLSCRASQSVSSTYLAWHQQKPGQAPRLLIYGVSSRASGVPDRFSGSGSGTDFTLTISRLEPEDFAVYYCQQYGSSPITFGQGTRLEIK
modifications: Human
Regarding B3, the Human vessel scoring in test [2] (4 days of Rx) is reported as 44 ± 28 1 × 10^3. Further, the “% of Control (human vessels)” value in test [2] (4 days, control = isotype control antibody) is 59%.

B4: 1.11.1: human anti-ALK-1 monoclonal antibody; VH SEQ ID NO: 10, VL SEQ ID NO: 12 (antibody, V domains shown)
VH: QVQLVESGGGVVQPGRSLRLSCAASGFTFSSHGMYWVRQAPGKGLEWVAAIWYDGSNKYYADSVKGRFTISRDNSKNTLYLQMNSLRAEDTAVYYCARDQEQWPDVFDIWGQGTMVTVSS
VL: DIQMTQSPSSLSASVGDRVTITCRASQGIRNYLAWFQQKPGKAPKSLIYGASSLQSGVPSKFSGSGSGTDFTLTISSLQPEDFATYYCQQYNSYPLTFGGGTKVEIK
modifications: Human
Take B4: the epitope bin result in test [3] is recorded as “in one bin”.
